Experimental data published in patent US20250313634A1 (WUXI BIOLOGICS SHANGHAI, published 2025).

Assays:
[1] = molecular target: T1, PD-L2 expressed on transfected CHO cells (Homo sapiens (Human), UniProt Q9BQ51 20-273); assay: FACS on PD-L2 transfected CHO-K1 cells, single bar, antibody concentration not shown
T1 construct: also called PD-L2 of PD-1 ligand family
T1 sequence: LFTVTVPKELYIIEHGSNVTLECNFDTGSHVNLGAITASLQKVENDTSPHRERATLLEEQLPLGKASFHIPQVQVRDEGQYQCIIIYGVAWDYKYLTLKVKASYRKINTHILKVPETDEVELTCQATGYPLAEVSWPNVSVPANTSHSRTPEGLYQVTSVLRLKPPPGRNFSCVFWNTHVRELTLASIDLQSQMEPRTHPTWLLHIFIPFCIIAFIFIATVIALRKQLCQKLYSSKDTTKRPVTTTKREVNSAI
Description: 3.8 Cross-family binding assay by FACS: to examine the cross-family binding activity of the fully human antibodies, cells lines that express PD-L2 were stained with the fully human antibodies, followed by 2nd antibody staining with FITC conjugated goat anti-human IgG Fc. PD-L1 expressing cells were used as positive control. Corresponding parental cell lines were used as negative controls. The stained cells were analyzed by using a BD Biosciences FACSCanto II and FlowJo Version software.
CHO cells transfected with PD-L1 or PD-L2 were stained with fully human PD-L1 antibodies and analysis by FACS.

[2] = molecular target: T2, recombinant human PD-L1 (human, UniProt Q9NZQ7 19-238, limits assumed); assay: surface plasmon resonance per legend paragraph 39 and paragraph 188; column Best fit-KD, mol/L from the legend
T2 construct: Used for the SPR analyte (3.2) and for the plate-coated human PD-L1 of the cross-species ELISA (3.7); also called human PD-L1 (SPR analyte); Human PD-L1 coated on ELISA plates
T2 sequence (Q9NZQ7 19-238 limits assumed): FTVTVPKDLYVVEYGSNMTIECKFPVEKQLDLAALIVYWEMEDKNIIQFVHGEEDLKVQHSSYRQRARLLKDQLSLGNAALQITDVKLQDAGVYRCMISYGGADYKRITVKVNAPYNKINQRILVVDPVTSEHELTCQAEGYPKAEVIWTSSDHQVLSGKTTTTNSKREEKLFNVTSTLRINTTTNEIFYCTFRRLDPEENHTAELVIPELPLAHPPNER
Source text: 3.2 Affinity test by surface plasmon resonance (SPR): Antibodies were characterized for affinity and binding kinetics to PD-L1 by SPR assay using ProteOn XPR36 (Bio-Rad). Protein A protein (Sigma) was immobilized to a GLM sensor chip (Bio-Rad) through amine coupling. Purified antibodies were flowed over the sensor chip and captured by the Protein A. The chip was rotated […] and washed with running buffer (1×PBS/0.01% Tween20, Bio-Rad) until the baseline is stable. Five concentrations of human PD-L1 and running buffer were flowed against the antibody flow cell at a flow rate 100 μL/min for an association phase of 240s, followed by 600s dissociation. The chip was regenerated with pH 1.7 H₃PO₄ after each run. The association and dissociation curve was fit to a 1:1 Langmiur binding model using ProteOn software.

[3] = molecular target: T3, full-length human PD-L1 expressed on CHO cells (human, UniProt Q9NZQ7 19-290); assay: FACS on CHO cells transfected with full-length human PD-L1
T3 construct: whole, on cells; also called CHO-K1 cells expressing human PD-L1; PD-L1 transfected CHO cells
T3 sequence (Q9NZQ7 19-290): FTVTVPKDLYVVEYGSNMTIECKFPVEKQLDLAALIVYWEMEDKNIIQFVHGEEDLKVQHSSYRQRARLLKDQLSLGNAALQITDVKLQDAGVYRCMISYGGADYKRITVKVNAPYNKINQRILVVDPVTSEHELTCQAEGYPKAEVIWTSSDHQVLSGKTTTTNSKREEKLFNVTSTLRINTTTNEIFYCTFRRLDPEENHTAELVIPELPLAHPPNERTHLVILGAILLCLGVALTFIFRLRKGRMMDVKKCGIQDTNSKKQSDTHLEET

[4] = molecular target: T3, full-length human PD-L1 expressed on …; assay: FACS competition: blocking of mouse Fc-tagged human PD-1 binding to CHO cells expressing human PD-L1
Description: (§1) 3.1 Competition assay by FACS: to examine whether the fully human antibodies can block the binding of PD-L1 to PD-1, the CHO-K1 cells expressing human PD-L1 were incubated with various concentrations of the fully human antibodies at 4° C. for 1 hour. The unbound antibodies were washed away, and then the mouse Fc-tagged human PD-1 was added to the cells. The binding of human PD-1 to PD-L1 expressing cell was detected by using FITC-conjugated goat anti-mouse IgG, followed by the analysis using a BD Biosciences FACSCanto II and FlowJo Version software.
(§2) Then the mouse Fc-tagged human PD-1 was added to the cells. The binding of human PD-1 to PD-L1 expressing cell was detected by using FITC-conjugated goat anti-mouse IgG, followed by the FACS analysis.

[5] = molecular target: T3, full-length human PD-L1 expressed on …; assay: FACS competition on CHO cells expressing human PD-L1; competitor mouse Fc-tagged human PD-1
Description: as §1, §2

[6] = molecular target: T4, murine PD-L1 (mouse, UniProt Q9EP73 19-238, limits assumed); assay: ELISA, murine PD-L1 coated on the plate, goat anti-human IgG Fc-HRP; antibody concentration not shown
T4 construct: also called mouse PD-L1 (coated on ELISA plates)
T4 sequence (Q9EP73 19-238 limits assumed): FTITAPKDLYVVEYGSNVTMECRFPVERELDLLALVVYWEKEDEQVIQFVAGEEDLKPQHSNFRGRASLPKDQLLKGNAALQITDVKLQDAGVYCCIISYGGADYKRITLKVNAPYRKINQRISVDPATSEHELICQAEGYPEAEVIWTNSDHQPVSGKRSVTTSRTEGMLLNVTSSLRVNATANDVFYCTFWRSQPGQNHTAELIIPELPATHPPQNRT
Description: 3.7 Cross-species binding assay: the cross-reactivity of the Ab to cynomolgus and murine PD-L1 was measured by ELISA. Human, cyno and mouse PD-L1 were coated on ELISA plates, respectively. After blocking, fully human antibodies were added into the plate and incubated at room temperature for at least 2 hours. The binding of the antibodies to the coated antigens was detected by using goat anti-human IgG Fc-HRP. The color reaction was developed using TMB substrate and stopped by 2M HCl. The ELISA plates were analyzed at 450 nm using a Molecular Device M5e microplate reader.

B1: 1.20.15 (antibody, V domains shown)
VH: QLQLQESGPGLVKPSETLSLTCTVSGGSISSISNYWGWIRQPPGKGLEWIGSIYYSGSTNYNPPLKSRVTISVDTTKNQFSLKLSSVTAADTAVYYCARLTYYFDYWGQGMLVTVSS
VL: SYDLTQPPSVSVSPGQTASITCSGDKLGDKYACWYQQKPGQSPLLVIQQDSKRPSGIPARFSGSNSGNTATLTISGTQAMDEADYFCQTWDSSTVVFGGGTKLTVL
notes: Fully human monoclonal antibody with a human constant region of IgG4 isotype; also called fully human PD-L1 antibody 1.20.15; 1.20.15-VH(30712)
[1]
  binding result: no binding
[2]
  Kd: 0.226 nM
[3]
  EC50 (read off the curve): ~1 nM
[4]
  IC50 (read off the curve): ~2 nM
[5]
  IC50: ~10 nM
[6]
  binding result: no binding

B2: 1.46.11 (antibody, V domains shown)
VH: EVQLLESGGGLVQPGGSLRLSCAASGFTFSSYAMSWVRQAPGKGLEWVSGFSGSGFITYYADSVKGRFTISRDNSKNTLYLQMNSLRAEDTAVYYCAMPPRGYNYGPFDYWGQGTLVTVSS
VL: SYVLTQPPSVSVAPGQTARITCGGNNIGSKSVHWYQQKPGQAPVLVVYDDSDRPSGIPERFSGSNSGNTATLTISRVEAGDEADYYCQVWDSSSDHVVFGGGTKLTVL
notes: Fully human monoclonal antibody with a human constant region of IgG4 isotype
[1]
  binding result: no binding
[6]
  binding result: no binding

B3: 1.4.1 (antibody, V domains shown)
VH: QLQLQESGPGLVKPSESLSLTCTVSGGSISIRTYYWGWIRQPPGTGLEWMGYIYYSGSTRYNPSLKSRVTISVDTSKNQFSLKLSSVTAADTAVYYCARLSYFFDYWGQGTLVTVSS
VL: SYELTQPPSVSVSPGQTASITCSGDKLGDKYACWYQQKPGQSPVMVIYQDTKRPSGIPERFSGSNSGNTATLTISGTLAMDEADYYCQAWDSGTVIFGGGTKLTVL
notes: Fully human monoclonal antibody with a human constant region of IgG4 isotype; also called fully human PD-L1 antibody 1.4.1; 1.4.1-VH(30511)
[1]
  binding result: no binding
[2]
  Kd: 0.478 nM
